System: Escherichia coli TOP10
Experiment: shrunken log2 fold change of peptide-encoding DNA abundance (4.5 h post-induction vs induction); higher = less antimicrobial activity (less host growth inhibition)
Conditions: time post-induction: 4.5 h; library: site-saturation at positions 5, 18, 19, 20
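Note: peptides expressed intracellularly from a pBAD plasmid library in pooled LB shake-flask culture, induced with 0.3% L-arabinose, DNA abundance read by NGS, three biological replicates, DESeq2 with apeglm shrinkage.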

Sequence	shrunken log2 fold change
RRIRPRPPRLPRPRPRPCAMPRP	0.0848
RRIRRRPPRLPRPRPRPGHCPRP	0.0653
RRIRIRPPRLPRPRPRPSISPRP	-0.046
RRIRHRPPRLPRPRPRPHCIPRP	-0.199
RRIRLRPPRLPRPRPRPANEPRP	0.0458
RRIRARPPRLPRPRPRPWKQPRP	0.00355
RRIRSRPPRLPRPRPRPVRSPRP	0.255
RRIRQRPPRLPRPRPRPGRWPRP	0.446
RRIRDRPPRLPRPRPRPWWPPRP	0.0881
RRIRTRPPRLPRPRPRPDVKPRP	-0.521
RRIRGRPPRLPRPRPRPSWMPRP	-0.208
RRIRMRPPRLPRPRPRPRWDPRP	0.793
RRIRYRPPRLPRPRPRPQQTPRP	0.019
RRIRKRPPRLPRPRPRPVIEPRP	0.15
RRIRSRPPRLPRPRPRPFHLPRP	-0.321
RRIRHRPPRLPRPRPRPGTAPRP	-0.275
RRIRWRPPRLPRPRPRPPCKPRP	-0.0735
RRIRVRPPRLPRPRPRPGNRPRP	-0.0858
RRIRRRPPRLPRPRPRPAKQPRP	0.136
RRIRLRPPRLPRPRPRPIVTPRP	2.68
RRIRDRPPRLPRPRPRPYAQPRP	-0.156
RRIRYRPPRLPRPRPRPSMEPRP	-0.408
RRIRIRPPRLPRPRPRPPNSPRP	0.0359
RRIRPRPPRLPRPRPRPMERPRP	-0.0425
RRIRSRPPRLPRPRPRPKRKPRP	0.458

Sequence	shrunken log2 fold change
RRIRDRPPRLPRPRPRPMPTPRP	-0.0113
RRIRKRPPRLPRPRPRPYGGPRP	0.0335
RRIRDRPPRLPRPRPRPPSAPRP	0.506
RRIRPRPPRLPRPRPRPGHYPRP	-0.0973
RRIRNRPPRLPRPRPRPKRSPRP	0.115
RRIRMRPPRLPRPRPRPKTNPRP	0.864
RRIRFRPPRLPRPRPRPRCHPRP	-0.0965
RRIRCRPPRLPRPRPRPFCVPRP	-0.248
RRIRNRPPRLPRPRPRPVHMPRP	-0.0948
RRIRMRPPRLPRPRPRPPKYPRP	-0.0762
RRIRQRPPRLPRPRPRPKIGPRP	-0.0543
RRIRKRPPRLPRPRPRPIRGPRP	0.0181
RRIRFRPPRLPRPRPRPIHWPRP	-0.414
RRIRLRPPRLPRPRPRPALYPRP	0.193
RRIRMRPPRLPRPRPRPYNKPRP	-0.561
RRIRARPPRLPRPRPRPQTFPRP	-0.528
RRIRPRPPRLPRPRPRPNNNPRP	-0.659
RRIRGRPPRLPRPRPRPIWPPRP	0.23
RRIRVRPPRLPRPRPRPDVSPRP	-0.0827
RRIRPRPPRLPRPRPRPYHKPRP	-1.15
RRIRVRPPRLPRPRPRPNIRPRP	-0.664
RRIRIRPPRLPRPRPRPHHEPRP	-0.0701
RRIRTRPPRLPRPRPRPLGMPRP	0.257
RRIRTRPPRLPRPRPRPVLNPRP	-0.269
RRIRVRPPRLPRPRPRPIEYPRP	-0.05

Sequence	shrunken log2 fold change
RRIRARPPRLPRPRPRPFYPPRP	-0.104
RRIRIRPPRLPRPRPRPMTLPRP	0.0505
RRIRDRPPRLPRPRPRPGICPRP	-0.0538
RRIRCRPPRLPRPRPRPAVPPRP	0.073
RRIRARPPRLPRPRPRPVCDPRP	0.992
RRIRRRPPRLPRPRPRPCWCPRP	-0.138
RRIRTRPPRLPRPRPRPCVDPRP	0.0267
RRIRIRPPRLPRPRPRPYHKPRP	-0.165
RRIRVRPPRLPRPRPRPMSPPRP	0.0872
RRIRWRPPRLPRPRPRPTRYPRP	-0.104
RRIRKRPPRLPRPRPRPYWPPRP	-0.000778
RRIRKRPPRLPRPRPRPVWRPRP	0.0611
RRIRFRPPRLPRPRPRPCPNPRP	0.044
RRIRYRPPRLPRPRPRPHGVPRP	-0.261
RRIRTRPPRLPRPRPRPMVYPRP	-0.09
RRIRCRPPRLPRPRPRPTRVPRP	0.547
RRIRQRPPRLPRPRPRPGVAPRP	0.207
RRIRFRPPRLPRPRPRPPMGPRP	-0.00833
RRIRGRPPRLPRPRPRPCFYPRP	0.156
RRIRTRPPRLPRPRPRPMIPPRP	-0.12
RRIRNRPPRLPRPRPRPLNFPRP	-0.71
RRIRSRPPRLPRPRPRPPYLPRP	-0.45
RRIRKRPPRLPRPRPRPLFTPRP	0.331
RRIRKRPPRLPRPRPRPRWMPRP	0.273
RRIRSRPPRLPRPRPRPSCCPRP	-0.102

Sequence	shrunken log2 fold change
RRIRIRPPRLPRPRPRPHGPPRP	0.0659
RRIRERPPRLPRPRPRPMPYPRP	-0.0164
RRIRLRPPRLPRPRPRPGNDPRP	-0.0526
RRIRSRPPRLPRPRPRPWQGPRP	0.0115
RRIRERPPRLPRPRPRPKEHPRP	-0.457
RRIRRRPPRLPRPRPRPNPDPRP	0.314
RRIRLRPPRLPRPRPRPWMTPRP	-0.0262
RRIRGRPPRLPRPRPRPETIPRP	0.224
RRIRGRPPRLPRPRPRPDTIPRP	0.0799
RRIRLRPPRLPRPRPRPLWPPRP	0.302
RRIRMRPPRLPRPRPRPGSNPRP	0.211
RRIRFRPPRLPRPRPRPYEPPRP	-0.204
RRIRRRPPRLPRPRPRPAWKPRP	0.2
RRIRVRPPRLPRPRPRPATYPRP	-0.0417
RRIRIRPPRLPRPRPRPLANPRP	-0.145
RRIRYRPPRLPRPRPRPGPFPRP	-0.189
RRIRYRPPRLPRPRPRPIDEPRP	-0.438
RRIRMRPPRLPRPRPRPQNVPRP	-0.0183
RRIRARPPRLPRPRPRPYLGPRP	0.0554
RRIRMRPPRLPRPRPRPNVEPRP	0.0231
RRIRARPPRLPRPRPRPSKMPRP	-0.00925
RRIRKRPPRLPRPRPRPAFYPRP	0.114
RRIRPRPPRLPRPRPRPAESPRP	0.44
RRIRNRPPRLPRPRPRPVQEPRP	-0.0428
RRIRGRPPRLPRPRPRPERSPRP	1.36

Sequence	shrunken log2 fold change
RRIRDRPPRLPRPRPRPQEPPRP	-0.0802
RRIRDRPPRLPRPRPRPDNDPRP	0.212
RRIRCRPPRLPRPRPRPPREPRP	1.1
RRIRGRPPRLPRPRPRPEPNPRP	1.42
RRIRFRPPRLPRPRPRPQKNPRP	0.16
RRIRFRPPRLPRPRPRPYQYPRP	0.0631
RRIRTRPPRLPRPRPRPSYVPRP	-0.305
RRIRPRPPRLPRPRPRPCGIPRP	-0.0938
RRIRFRPPRLPRPRPRPAITPRP	-0.136
RRIRSRPPRLPRPRPRPRPGPRP	0.658
RRIRNRPPRLPRPRPRPGIHPRP	0.0285
RRIRHRPPRLPRPRPRPGVNPRP	-0.000777
RRIRWRPPRLPRPRPRPWCYPRP	-0.475
RRIRCRPPRLPRPRPRPQEVPRP	0.144
RRIRGRPPRLPRPRPRPNYPPRP	0.0611
RRIRPRPPRLPRPRPRPLPCPRP	-0.407
RRIRCRPPRLPRPRPRPPRFPRP	1.34
RRIRSRPPRLPRPRPRPKDNPRP	-0.232
RRIRYRPPRLPRPRPRPWFFPRP	-0.841
RRIRLRPPRLPRPRPRPTLVPRP	-0.0392
RRIRCRPPRLPRPRPRPQKWPRP	-0.568
RRIRQRPPRLPRPRPRPPQRPRP	0.655
RRIRLRPPRLPRPRPRPRGWPRP	0.722
RRIRSRPPRLPRPRPRPDCNPRP	0.265
RRIRNRPPRLPRPRPRPLCKPRP	-0.146

Sequence	shrunken log2 fold change
RRIRLRPPRLPRPRPRPCSWPRP	-0.0168
RRIRIRPPRLPRPRPRPFDTPRP	0.0514
RRIRCRPPRLPRPRPRPMPSPRP	2.8
RRIRHRPPRLPRPRPRPDTTPRP	-0.226
RRIRNRPPRLPRPRPRPKCLPRP	0.0771
RRIRRRPPRLPRPRPRPVMSPRP	0.042
RRIRGRPPRLPRPRPRPWPSPRP	0.258
RRIRYRPPRLPRPRPRPTPIPRP	-0.158
RRIRKRPPRLPRPRPRPRLVPRP	0.338
RRIRTRPPRLPRPRPRPRMYPRP	0.0541
RRIRDRPPRLPRPRPRPELKPRP	-0.00616
RRIRERPPRLPRPRPRPTRDPRP	0.245
RRIRVRPPRLPRPRPRPLGHPRP	0.0376
RRIRKRPPRLPRPRPRPFYLPRP	-0.154
RRIRGRPPRLPRPRPRPDICPRP	0.2
RRIRVRPPRLPRPRPRPDMVPRP	-0.0411
RRIRRRPPRLPRPRPRPETIPRP	0.175
RRIRQRPPRLPRPRPRPDKCPRP	0.272
RRIRMRPPRLPRPRPRPTCQPRP	-0.049
RRIRLRPPRLPRPRPRPCLQPRP	-0.207
RRIRRRPPRLPRPRPRPEDFPRP	0.117
RRIRFRPPRLPRPRPRPAFNPRP	-0.367
RRIRWRPPRLPRPRPRPFMNPRP	-0.11
RRIRSRPPRLPRPRPRPGSYPRP	-0.0952
RRIRARPPRLPRPRPRPTPCPRP	0.323
